In patent US20210315969A1, “GLYCOPROTEINS HAVING LIPID MOBILIZING PROPERTIES AND THERAPEUTIC USES THEREOF” (Aston University, priority 2008, published 2021):
Marks after values point to notes of the source that are not given here.

How the values were obtained:
[1] = ZAG i.v. administration to ob/ob mice, 5 day study (body weight, temperature, plasma metabolites); type: in vivo
Method: Animals—Mice—Homozygous obese (ob/ob) mice from the colony maintained at Aston University were used in the present study. The origin and characteristics of Aston ob/ob mice have been previously described. Male mice (20-21 weeks old, weight 90-100 g) were grouped into three per cage in an air conditioned room at 22 ±2° C. with a 12 h-light:12 h-dark cycle and fed a rat and mouse breeding diet (Special Diet Services, Witham, UK) and tap water ad libitum. They were administered ZAG (35 μg) in PBS (100 μl) b.d. by i.v. administration and body weight and food and water intake were monitored daily. Control mice received PBS alone. Body temperature was measured daily by the use of a rectal thermometer (RS Components, Northants, UK). All animal experiments were carried out in accordance with the U.K. Animals (Scientific Procedures) Act 1986.
(§1) Serum Metabolite Determinations—Non-esterified fatty acids (NEFA) were determined using a Wako-ASC-ACOD kit (Wako Chemical GmbH, Neuss, Germany). Triglycerides were determined using a Triglyceride kit (Sigma Chemical Co., Poole, United Kingdom) and 3-hydroxybutyrate by a quantitative enzymatic determination kit (Sigma). Glucose was measured using a glucose analyser (Beckman, Irvine, Calif.) and glycerol was determined enzymatically using the method of Wieland as described in “Methods of Enzymatic Analysis” (Ed, Bergmeyer, H. U.) Vol. 3, pp1404-1409, published by Academic Press, London (1974).

[2] = system: adipocytes and gastrocnemius muscle; assay: Glucose uptake into adipocytes and gastrocnemius muscle of ob/ob mice treated with ZAG; type: in vivo; conditions: presence of low (1 nM) insulin
Method: (§2) Glucose (intake into Atlipocpyes Isolated adipocytes (5×10^4) were washed twice in 1 ml Krebs-Ringer bicarbonate buffer, pH 7.2 (KRBS) and further incubated for 10 min at room temperature in 0.5 ml KRBS containing 18.5MBq […]-^14CI deoxy-D-glucose and non-radioactive 2-deoxy-D-glucose to a final concentration of 0.1 mM. Uptake was terminated by the addition of 1 ml ice-cold glucose-free KRBS, and the cells were washed three times with 1 ml KRBS, lysed by addition of 0.5 ml 1 M NaOH and left for at least 1 h at room temperature before the radioactivity was determined by liquid scintillation counting.
(§3) Glucose Uptake into Gostrocneinius Muscle—Gastrocnemius muscles were incubated in Krebs-Henseleit bicarbonate butler for 45 min at 37° C. and then incubated for a further 10 min in 5 ml Krebs-Henseleit butler containing 185M Bq 2-[1-^14C]deoxy-D-glucose and non-radioactive 2-deoxy-D-glucose to a final concentration of 0.1 mM. The muscles were then removed and washed in 0.9% NaCl for 5 min followed by dissolution in 0.5 ml 1M NaOH and the radioactivity was determined by liquid scintillation counting.

[3] = Daily i.v. ZAG in mature male Wistar rats for 10 days (body weight, composition, plasma metabolites); type: in vivo
Method: Animals Rais Mature male Wistar rats (one year old from our own colony) weighing 540 ±82.5 g were housed individually and treated once daily i. v., with either ZAG in PBS (100 μl) (50 μg per 100 g body weight), or with PBS (100 μl) as a control. Both food and water intake and body weight were measured daily. Animals were given free access to food (Special Diet Services, Essex, UK) and water ad libitum. The animal experiment was carried out under the welfare conditions imposed by the British Home Office. After 10 days treatment the animals were terminated and the body composition determined. Animals were heated to 80-90° C. for 7 days until constant weight was achieved. The water content was then determined from the difference between the wet and dry weight. Lipids were extracted from the dry carcass using a sequence of chloroform:methanol (1:1), ethanolla.cetone (1:1) and diethyl ether (120 ml of each) as described by Lundholm et al (14). The solvents were evaporated and the fat weighed. The non-fat carcass mass was calculated as the difference between the initial weight of the carcass and the weight of water and fat.
as §1

[4] = system: epididymal adipocytes, gastrocnemius muscle and BAT; assay: Glucose uptake into epididymal adipocytes, gastrocnemius muscle and BAT of rats treated with ZAG; type: in vivo, Wistar rats
Method: FIG. 12D is a graphical diagram showing glucose uptake into gastrocnemius muscle and BAT of male Wistar rats after 10 days treatment with either ZAG or PBS. in the absence or presence of insulin (60 μU/ml). Differences between ZAG and PBS treated animals are shown as a, p<0.05, b, p<0.01 or c, p<0.001, while differences in the presence of insulin are shown as or f, p<0.001.
as §2, §3

[5] = system: protein expression in WAT, BAT and gastrocnemius muscle; assay: Western blot of WAT, BAT and gastrocnemius muscle of rats treated with ZAG; type: in vivo, Wistar rats
Method: Samples of cytosolic protein (10 μg) were resolved on 12% sodium dodecylsuiphate polyacrylamide gel electrophoresis and the proteins were then transferred onto 0.45 μm nitrocellulose menibranes, which had been blocked with 5% N,Tarvel in ids-buffered saline, pH 7.5, at 4° C. overnight, and following four 15 min washes with 0.1% Tween in PBS, incubation with the secondary antibody was performed for 1 h at room temperature. Development was by ECL.

[6] = system: adipocytes; assay: Expression of phospho HSL / HSL in adipocytes incubated 3 h with ZAG or isoprenaline; type: cell-based, mice; conditions: 3 h; isoprenaline 10 μM or ZAG 0.46 μM
[7] = ob/ob mice treated for 120 h, wet weight

B1: Zinc-α2-glycoprotein (protein, listed as Homo sapiens)
chain: QENQDGRYSLTYIYTGLSKHVEDVPAFQALGSLNDLQFFRYNSKDRKSQPMGLWRQVEGMEDWKEDSQLQKAREDMETLKDIVEYYNDSNGSHVLQGRFGCEIENNRSSGAFWKYYYDGKDYIEFNKEIPAWVPFDPAAQITKQKWEAEPVYVQRAKAYLEEECPATLRKYLKYSKNILDRQDPPSVVVTSHQAPGEKKKLKCLAYDFYPGKIDVHWTRAGQVQEPELRGDVLHNGNGTYQSWVVVAVPPQDTAPYSCHVQHSSLAQPLVVPWEAS
notes: recombinant human Zinc-α2-glycoprotein, lipid mobilizing factor, expressed in HEK293F cells
With B1 the BAT ([1]; ob/ob mice treated for 120 h) was 0.73 ± 0.12 p < 0.01 g, the “NEFA (plasma)” value ([1]; ob/ob mice treated for 120 h) was 0.73 ± 0.05 p < 0.001 mEq/L and the “TG (plasma)” value ([1]; ob/ob mice treated for 120 h) was 0.9 ± 0.1 p < 0.05 mmol/L. The Gastrocncinius [1, 7] was 1.12 ± 0.14 p < 0.01 g, the Soleus [1, 7] was 0.80 ± 0.09 p < 0.01 g and the “rise of body temperature” value ([1]; ob/ob mice, after 4 days of ZAG administration) was 0.4 °C. For the same molecule, the “weight difference between the groups” value ([1]; ob/ob mice, after 5 days, ZAG vs PBS) was 3.5 g, the “glucose uptake into epididymal and visceral adipocytes” value [2] was “also increased glucose uptake” and the Starting weight ([3]; male rats, before treatment) was 530 ± 45 g. For the same molecule, the “Triglycerides (plasma)” value ([3]; rats treated for 10 days) was 1.1 ± 0.09^a mmol/l, the “decrease in plasma levels of non-esterified fatty acids (NEFA)” value ([3]; rats, 10 days) was 55% and the “elevation in body temperature” value ([3]; rats, significant within 24 h of first administration) was 0.4 °C. For the same molecule, the “glucose uptake into gastrocnemius muscle and BAT” value ([4]; absence of insulin, vs PBS) was “small, non-significant increase”, the “glucose uptake into adipocytes, ZAG versus PBS treated animals” value ([4]; presence of insulin (60 μU/ml)) was “no significant difference” and the “glucose uptake into gastrocnemius muscle and BAT” value ([4]; presence of insulin (60 μU/ml)) was “significant increase in uptake”. The “expression of glucose transporter 4 (GLUT4) in BAT, WAT and skeletal muscle” value ([5]; 10 days) was “increased expression”, the “expression of phosphorylated forms of PKR and eIF2 α-subunit in gastrocnemius muscle” value ([5]; total amount did not change) was “significant reduction” and the “expression of phospho HSL in adipocytes” value [6] was “increased expression of phospho HISL”.
